{
  "source": "paper PMC9520036",
  "about": "“The heme-regulated inhibitor kinase requires dimerization for heme-sensing activity” (The Journal of Biological Chemistry, 2022)",
  "molecules": {"B1": {"name": "HRI-ΔN-ΔpCC (Δ1-143, Δ620-630), untreated (phosphorylated as purified) (domain or fragment, human, UniProt Q9BQI3 144-619, looked up)", "chain": "SRIQKIRSREVALEAQTSRYLNEFEELAILGKGGYGRVYKVRNKLDGQYYAIKKILIKGATKTVCMKVLREVKVLAGLQHPNIVGYHTAWIEHVHVIQPRADRAAIELPSLEVLSDQEEDREQCGVKNDESSSSSIIFAEPTPEKEKRFGESDTENQNNKSVKYTTNLVIRESGELESTLELQENGLAGLSASSIVEQQLPLRRNSHLEESFTSTEESSEENVNFLGQTEAQYHLMLHIQMQLCELSLWDWIVERNKRGREYVDESACPYVMANVATKIFQELVEGVFYIHNMGIVHRDLKPRNIFLHGPDQQVKIGDFGLACTDILQKNTDWTNRNGKRTPTHTSRVGTCLYASPEQLEGSEYDAKSDMYSLGVVLLELFQPFGTEMERAEVLTGLRTGQLPESLRKRCPVQAKYIQHLTRRNSSQRPSAIQLLQSELFQNSGNVNLTLQMKIIEQEKEIAELKKQLNLLSQDKG", "modifications": "autophosphorylated as purified from E. coli (sites not given)", "notes": "The limits 144-619 follow from the printed deletions Δ1-143 and Δ620-630; also called His-HRI-ΔN-ΔpCC; untreated HRI-ΔN-ΔpCC"}, "B2": {"name": "HRI-ΔN-ΔpCC (Δ1-143, Δ620-630), dephosphorylated with lambda phosphatase (domain or fragment, human, UniProt Q9BQI3 144-619, looked up)", "chain": "B1 chain", "notes": "Human HRI, UniProt Q9BQI3, residues 144-619 (Δ1-143, Δ620-630); phosphate groups removed with lambda phosphatase; The limits 144-619 follow from the printed deletions Δ1-143 and Δ620-630; also called dephosphorylated HRI-ΔN-ΔpCC; source: E. coli BL21-Rosetta(DE3), purified, incubated with lambda phosphatase, then Superdex 200"}},
  "key": {"[1]": {"molecular_target": "T1, heme-regulated inhibitor (HRI) (Homo sapiens, UniProt Q9BQI3)", "T1 construct": "gene EIF2AK1; HRI-FL (full-length)", "T1 sequence (Q9BQI3 whole entry)": "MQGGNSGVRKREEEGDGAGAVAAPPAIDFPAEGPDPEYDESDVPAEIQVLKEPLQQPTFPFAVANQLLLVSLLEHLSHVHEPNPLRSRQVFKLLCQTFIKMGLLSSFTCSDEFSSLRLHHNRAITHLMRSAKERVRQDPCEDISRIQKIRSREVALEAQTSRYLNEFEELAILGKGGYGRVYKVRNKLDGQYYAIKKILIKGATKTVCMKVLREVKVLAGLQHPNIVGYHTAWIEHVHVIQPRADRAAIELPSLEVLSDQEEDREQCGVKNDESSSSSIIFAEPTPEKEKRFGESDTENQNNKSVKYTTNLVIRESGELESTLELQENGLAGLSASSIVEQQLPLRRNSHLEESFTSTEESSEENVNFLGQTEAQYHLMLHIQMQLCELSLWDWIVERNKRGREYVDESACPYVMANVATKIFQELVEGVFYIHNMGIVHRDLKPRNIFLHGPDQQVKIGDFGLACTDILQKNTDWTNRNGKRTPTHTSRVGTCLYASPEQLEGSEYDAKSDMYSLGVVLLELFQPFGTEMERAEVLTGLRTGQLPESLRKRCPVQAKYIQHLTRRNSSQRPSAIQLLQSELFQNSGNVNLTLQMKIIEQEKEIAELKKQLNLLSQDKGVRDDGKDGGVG", "assay": "γ[…] ATP filter-paper kinase assay with eIF2α peptide; supported by DSF (~[…] °C shift) and DSC stabilization", "format": "biochemical"}, "[2]": {"molecular_target": "the molecule itself", "assay": "AUC; sedimentation velocity; samples at an absorbance of 0.5 at 280 nm, 20 °C, 42,000 rpm, c(s) distribution model in SEDFIT; self-association (oligomeric state from fit MW)"}},
  "data": [
    {"molecule": "O=c1c(O)c(-c2ccc(O)c(O)c2)oc2cc(O)cc(O)c12", "note": "[quercetin]", "values": [
      {"measurement": "IC50", "setting": "[1]", "result": 1520, "unit": "nM"}
    ]},
    {"molecule": "B1", "values": [
      {"measurement": "stoichiometry N", "setting": "[2]", "result": 2}
    ]},
    {"molecule": "B2", "values": [
      {"measurement": "stoichiometry N", "setting": "[2]", "result": 2}
    ]}
  ]
}
